# Paper doi:10.1101/2025.03.30.646247 (bioRxiv, 2025)
# T1: 6xHis-CIPK6 (Arabidopsis thaliana, UniProt O65554 1-441)
# T1 sequence: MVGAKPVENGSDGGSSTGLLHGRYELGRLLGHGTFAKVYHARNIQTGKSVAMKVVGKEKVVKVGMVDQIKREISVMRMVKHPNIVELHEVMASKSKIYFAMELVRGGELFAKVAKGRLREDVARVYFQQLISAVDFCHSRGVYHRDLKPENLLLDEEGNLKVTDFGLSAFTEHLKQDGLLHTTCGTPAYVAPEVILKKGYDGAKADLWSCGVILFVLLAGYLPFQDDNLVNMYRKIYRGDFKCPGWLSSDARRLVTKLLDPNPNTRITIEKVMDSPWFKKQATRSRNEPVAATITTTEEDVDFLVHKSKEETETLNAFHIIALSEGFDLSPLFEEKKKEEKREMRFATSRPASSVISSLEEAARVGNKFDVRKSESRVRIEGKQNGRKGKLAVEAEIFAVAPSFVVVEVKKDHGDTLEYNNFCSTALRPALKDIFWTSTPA
# Target: T1, 6xHis-CIPK6
# Experiment: pull-down
binder,measurement,value
GST-RbohD-N (domain or fragment) MKMRRGNSSNDHELGILRGANSDTNSDTESIASDRGAFSGPLGRPKRASKKNARFADDLPKRSNSVAGGRGDDDEYVEITLDIRDDSVAVHSVQQAAGGGGHLEDPELALLTKKTLESSLNNTTSLSFFRSTSSRIKNASRELRRVFSRRPSPAVRRFDRTSSAAIHALKGLKFIATKTAAWPAVDQRFDKLSADSNGLLLSAKFWECLGMNKESKDFADQLFRALARRNNVSGDAITKEQLRIFWEQISDESFDAKLQVFFDMVDKDEDGRVTEEEVAEIISLSASANKLSNIQKQAKEYAALIMEELDPDNAGFIMIENLEMLLLQAPNQSVRMGDSRILSQMLSQKLRPAKESNPLVRWSEKIKYFILDNWQR,binding result,binds
